Measurements: patent publication CN110563849A (ANHUI RUBIOX VISION BIOTECHNOLOGY CO LTD, dated 2019)

Target: T1, PD-1-mFc (人PD-1胞外区加Fc纯化标签) (human, UniProt Q15116 25-170)
T1 construct: extracellular domain;domain: Fc; also called PD-1抗原; PD-1蛋白; not shown: mFc, Fc purification tag (mouse Fc)
Experiment: competition ELISA, PD-1-mFc coated, competitor PDL-1-hFc

T1 sequence (Q15116 25-170): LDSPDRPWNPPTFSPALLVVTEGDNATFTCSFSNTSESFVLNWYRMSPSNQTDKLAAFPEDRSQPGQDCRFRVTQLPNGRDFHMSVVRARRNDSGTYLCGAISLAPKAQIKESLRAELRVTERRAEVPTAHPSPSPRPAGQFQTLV

B1: 双特异性抗体Vs3P4 (dsFv-VEGF-linker-PD1-H chain结构) (bispecific antibody, human IgG4 S228P, kappa)
heavy: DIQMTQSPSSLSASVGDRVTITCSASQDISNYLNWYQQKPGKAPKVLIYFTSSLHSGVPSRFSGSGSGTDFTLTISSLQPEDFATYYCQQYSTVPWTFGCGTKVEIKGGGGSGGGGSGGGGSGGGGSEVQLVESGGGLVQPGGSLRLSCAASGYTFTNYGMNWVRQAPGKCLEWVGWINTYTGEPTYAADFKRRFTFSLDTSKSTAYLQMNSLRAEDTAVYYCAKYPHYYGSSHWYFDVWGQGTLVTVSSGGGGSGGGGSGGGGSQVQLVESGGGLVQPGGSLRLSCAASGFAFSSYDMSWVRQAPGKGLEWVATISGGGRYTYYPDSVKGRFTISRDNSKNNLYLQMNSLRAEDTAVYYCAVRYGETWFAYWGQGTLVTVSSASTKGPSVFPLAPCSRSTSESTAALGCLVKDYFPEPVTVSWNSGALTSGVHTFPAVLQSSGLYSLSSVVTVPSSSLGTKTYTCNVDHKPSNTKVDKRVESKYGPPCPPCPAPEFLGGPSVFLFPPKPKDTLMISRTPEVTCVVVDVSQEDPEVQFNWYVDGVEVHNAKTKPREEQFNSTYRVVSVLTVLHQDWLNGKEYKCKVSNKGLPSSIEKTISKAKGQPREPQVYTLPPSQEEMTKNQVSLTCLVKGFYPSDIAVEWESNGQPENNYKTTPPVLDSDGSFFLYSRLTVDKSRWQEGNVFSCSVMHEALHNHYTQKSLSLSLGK
light: DIQMTQSPSSLSASVGDRVTITCRASQDINTYLAWFQQKPGKAPKSLIYRANRLVSGVPSRFSGSGSGTDFTLTISSLQPEDMATYYCLQYDEFPLTFGAGTKLELKRTVAAPSVFIFPPSDEQLKSGTASVVCLLNNFYPREAKVQWKVDNALQSGNSQESVTEQDSKDSTYSLSSTLTLSKADYEKHKVYACEVTHQGLSSPVTKSFNRGEC
notes: Expressed in 293F cells; also called 抗VEGF-抗PD1双特异性抗体
**Q.** Does B1 bind?
**A.** binds
